{"source": "paper PMC4915018", "about": "“Brain phosphorylation of MeCP2 at serine 164 is developmentally regulated and globally alters its chromatin association”", "binders": {"B1": {"name": "CpG methylated probe (dsDNA)", "DNA 1": "CTAAAGGAAAAGTGACGCACTGTTTTACACCTTGGTTTT", "DNA 2": "AAAACCAAGGTGTAAAACAGTGCGTCACTTTTCCTTTAG", "modifications": "symmetric methyl-C at the only CpG (C16 of S1, C23 of S2; position inferred, bold marks lost)"}}, "target": "MeCP2(74-172) WT (human, UniProt P51608 74-172)", "sequence (P51608 74-172)": "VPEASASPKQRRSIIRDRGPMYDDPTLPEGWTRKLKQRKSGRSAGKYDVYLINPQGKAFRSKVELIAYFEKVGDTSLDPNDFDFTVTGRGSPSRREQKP", "test": "EMSA; subtly but consistently higher affinity for mCG; 10 mM Tris-HCl (pH not given), 50 mM KCl, 0.5 mM MgCl2, 0.1 mM EDTA, 5% glycerol, 0.1 mg/ml BSA, RT 30 min; 0-500 ng protein, 200 ng probe; 6% acrylamide, 1X TAE, ethidium bromide", "settings": "protein: recombinant; blunt"}
{"binder": "B1", "values": [{"measurement": "binding result", "value": "binds"}]}
